Measured values published in article PMC11330416.

Columns and labels:
[1] = target: NRC SARS-CoV-2 (reference strain) spike protein reference material SMT1-1 (SARS-CoV-2 (reference strain, Wuhan-Hu-1)); test: SEC-MALS; Waters BEH SEC 4.6 x 150 mm column (200 A for ACE2-1, 450 A for OMIC-1), DPBS with 0.02% Tween-20, pH 7.4, 0.4 mL/min; UV at 280 nm, MALS and RI detection; relative amounts of species from SEC-UV
[2] = target: biotinylated human angiotensin-converting enzyme 2 reference material ACE2-1 (human) (UniProt Q9BYF1); test: SPR; ACE2-1 immobilised by its biotin on streptavidin on a biotin-coated Au chip (250-300 RU), blocked with 10 uM BSA; spike analyte in a twofold series of 12.5-200 nM at 50 uL/min, about 90 s association, 30-45 min dissociation; 10 mM HEPES pH 7-7.4, 150 mM NaCl, 3 mM EDTA, 0.05% Tween-20; 1:1 binding model; averages of two independent experiments
Chain of biotinylated human angiotensin-converting enzyme 2 reference material ACE2-1 (human) (Q9BYF1 20-614): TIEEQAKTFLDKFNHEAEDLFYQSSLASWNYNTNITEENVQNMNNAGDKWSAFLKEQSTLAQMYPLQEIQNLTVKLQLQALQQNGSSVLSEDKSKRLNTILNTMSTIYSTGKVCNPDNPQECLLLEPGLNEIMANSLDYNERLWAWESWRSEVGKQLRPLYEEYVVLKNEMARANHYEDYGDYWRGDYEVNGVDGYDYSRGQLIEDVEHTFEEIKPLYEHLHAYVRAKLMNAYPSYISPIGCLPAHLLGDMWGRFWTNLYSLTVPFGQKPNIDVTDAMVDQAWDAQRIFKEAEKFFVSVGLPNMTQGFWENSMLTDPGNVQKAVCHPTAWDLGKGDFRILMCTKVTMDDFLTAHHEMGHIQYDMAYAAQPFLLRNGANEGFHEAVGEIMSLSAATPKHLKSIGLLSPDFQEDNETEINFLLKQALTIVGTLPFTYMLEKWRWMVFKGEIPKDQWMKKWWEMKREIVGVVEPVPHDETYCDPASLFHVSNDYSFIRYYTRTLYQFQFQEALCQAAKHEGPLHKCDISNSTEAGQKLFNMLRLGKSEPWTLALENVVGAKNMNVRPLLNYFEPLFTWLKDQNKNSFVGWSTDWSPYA

NRC SARS-CoV-2 (reference strain) spike protein reference material SMT1-1
stoichiometry N [1]: 3
Kd [2]: 0.0171 µM
koff [2]: 0.0018 s⁻¹
kon [2]: 110000 M⁻¹ s⁻¹
